In publication PMC9331509, “Insights into Domain Organization and Regulatory Mechanism of Cystathionine Beta-Synthase from Toxoplasma gondii” (International Journal of Molecular Sciences, 2022):
Values joined by “and” are separate entries in the source; they are usually repeats but may differ in a detail not shown here. Equal values may be shown once. Marks after values point to notes of the source that are not given here.

B1: TgCBS R353* (TgCBS lacking the C-terminal Bateman module) (domain or fragment, Toxoplasma gondii, UniProt A0A125YSJ9 1-352, looked up)
chain: MNGKFADGPYSGILDSVLDAIGNTPMVRMKRLAKVYGLECDLLAKCEFMSAGGSVKDRIGKAMVEKAEREGRLKAGDTLIEPTSGNTGIGLALAAAVRGYRMIVTMPAKMSAEKSNIMKCLGAEIVRTPTEAAWNDENSHMGVAAKLQRELENAHILDQYNNTANPMVHYDVTAEEIITQCDGDIDMVVIGAGTGGTITGIGRKIKERCPKCKVVGVDPKGSILAVPDSLNDEKRLQSYEVEGIGYDFVPGVLDRKVVDEWVKVGDAESFTTARAIIRNEGLFVGGSSGANVWGALQAARQLKKGQKCVVLLPDSSRNYMSKFISDEWMAEHGFAPEDGAKVKEREKQFGGA
notes: Cystathionine beta-synthase (TgCBS), Toxoplasma gondii, residues 1-352 (catalytic domain and interdomain linker); 39 kDa subunit; made by site-directed mutagenesis on pET21a-TgCBS; also called C-terminally truncated TgCBS; truncated TgCBS; source: E. coli Rosetta (DE3), purified (Ni-sepharose, as the wild-type enzyme); not shown: His6, N-terminal, kept
B2: Full-length cystathionine beta-synthase from Toxoplasma gondii (enzyme, UniProt A0A125YSJ9 1-514, looked up)
chain: MNGKFADGPYSGILDSVLDAIGNTPMVRMKRLAKVYGLECDLLAKCEFMSAGGSVKDRIGKAMVEKAEREGRLKAGDTLIEPTSGNTGIGLALAAAVRGYRMIVTMPAKMSAEKSNIMKCLGAEIVRTPTEAAWNDENSHMGVAAKLQRELENAHILDQYNNTANPMVHYDVTAEEIITQCDGDIDMVVIGAGTGGTITGIGRKIKERCPKCKVVGVDPKGSILAVPDSLNDEKRLQSYEVEGIGYDFVPGVLDRKVVDEWVKVGDAESFTTARAIIRNEGLFVGGSSGANVWGALQAARQLKKGQKCVVLLPDSSRNYMSKFISDEWMAEHGFAPEDGAKVKEREKQFGGARIRDLLSETGATSDVPFVTARLSVEDVIKMMHETKVKEVIVTEDSEADGKTKLVGVLSEDHIAHSLQSGRCAMQSPVKDIAFKKLAKALPSAYLRDVAKALDFSPYVCVMDEKPSTKKQAGMGEHERAKISLRKAGNSRECPHFLGVITRIDLLHWLATKQK
notes: the cited crystal structure PDB 6XWL is of a construct lacking an internal loop (TgCBS Δ466-491); PLP-dependent enzyme; also called TgCBS; full-length TgCBS; source: E. coli Rosetta (DE3), purified (Ni-sepharose); not shown: His6, N-terminal, kept

Assays:
[1] = target: Proteolysed full-length TgCBS (39 kDa trypsin-resistant core) (Toxoplasma gondii); assay: SEC; 250 ug TgCBS incubated with trypsin 1:200 (w/w) for 120 min, stopped with a two-fold weight excess of soybean trypsin inhibitor, loaded on Superdex 200 10/300 GL; TgCBS R353* at 0.5 mg/mL run for comparison
full-length TgCBS = target: T1, full-length TgCBS (Toxoplasma gondii, UniProt A0A125YSJ9); assay: continuous CBL-LDH coupled assay; format: biochemical; conditions: saturating L-Ser and L-Hcys; pH 9, 37 °C; activity after heat pre-treatment or trypsinolysis
T1 construct: gene TGME49_259180; full-length, residues 1-514; N-terminal 6xHis tag; E. coli Rosetta (DE3); ~57 kDa subunit; mainly dimer
T1 sequence (A0A125YSJ9 1-514): B2 chain

TgCBS R353* = target: T2, TgCBS R353* (Toxoplasma gondii, UniProt A0A125YSJ9); assay: UV-Vis absorption ([…] nm internal aldimine); PLP content by NaOH, […] nm; format: binding; conditions: stoichiometry; covalent internal aldimine, as purified
T2 construct: gene TGME49_259180; C-terminally truncated (stop codon at R353; residues 353-514, Bateman module, removed), residues 1-352; N-terminal 6xHis tag; pET21a, E. coli Rosetta (DE3); 39 kDa; mainly dimer

[2] = target: the molecule itself; assay: SEC; Superdex 200 10/300 GL, protein at 1 mg/mL, 20 mM sodium phosphate buffer pH 8.5, 150 mM NaCl, 0.1 mM DTT; calibrated with standard proteins
[3] = target: the molecule itself; assay: native gel or EMSA; native PAGE at 8, 9, 10 and 12% polyacrylamide, 10 ug/lane, Coomassie staining, Ferguson plot analysis with molecular mass standards

Row | Molecule | continuous CBL-LDH coupled assay (full-length TgCBS) | stoichiometry N [2] | further results
1 | Proteolysed full-length TgCBS (39 kDa trypsin-resistant core) (from UniProt A0A125YSJ9 1-514) (domain or fragment) | – | – | stoichiometry N [1]: 2
2 | N[C@@H](CO)C(=O)O [L-Ser] | full-length TgCBS (solid triangles) and TgCBS R353* (open circles) on their steady-state initial velocity | – | –
3 | N[C@@H](CCS)C(=O)O [L-Hcys] | at saturating concentration of L-Ser and L-Hcys in the canonical reaction | – | –
4 | Cc1ncc(COP(=O)(O)O)c(C=O)c1O [PLP] | – | – | PLP per monomer (TgCBS R353*): 0.9 ± 0.1 mol/mol
5 | B1 | – | 2 and 4 | stoichiometry N [3]: ~4 and ~2
6 | B2 | – | 2 and 4 | –
